Results as given in patent US20090324491A1 (FORERUNNER PHARMA RESEARCH, published 2009).
One block for each binder: values may come before it.

Columns and labels:
[1] = molecular target: T1, soluble human EREG fragment (EGF domain; 63Val to 108Leu) comprising a mature structure, R&D Systems cat. no. … (human, UniProt O14944 63-108); experiment: ELISA, EREG fragment immobilized on immuno plate
T1 construct: Bought protein; also called soluble EREG; recombinant human EREG
Protocol: (§1) The binding towards partial fragments of the extracellular domain of human EREG was analyzed to determine antibody epitope. The N-terminal partial sequence fragment of ²⁹Ala to ⁶⁹Ser of human EREG of SEQ ID NO: 21 was expressed as a GST fusion protein and purified to homogeneity. The sequence of the obtained recombinant protein is shown in SEQ ID NO: 172. A soluble human EREG fragment (EGF domain; corresponding to ⁶³Val to ¹⁰⁸Leu of SEQ ID NO: 21) comprising a mature structure was purchased from R&D Systems (cat. no. 1195-EP/CF). Fragments of the EREG protein were immobilized onto an immuno plate, and the binding of the antibodies was examined by ELISA. Most of the antibodies bound to the soluble EREG fragment that comprises the EGF domain (indicated as “ereg” in Table 3). EP25 and EP32 bound to the N-terminal fragment (“Nterm”). All of the isolated antibodies bound to either one of the peptide fragments, and none of the antibodies recognized the sequence beyond residue 109.

[2] = molecular target: T1, soluble human EREG fragment (EGF …); experiment: ELISA, EREG fragment immobilized on immuno plate; note: binds, but with low reactivity
Protocol: as §1

T1 sequence (O14944 63-108): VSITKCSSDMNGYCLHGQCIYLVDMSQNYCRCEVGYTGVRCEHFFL

B1: anti-EREG mouse monoclonal antibody EP27 (B3#18) (antibody, mouse IgG2b, V domains shown)
VH: EDQLQQSGAELVKPGASVKLSCTASGFNIKDTYIQWVKLRPEQGLEWIGRIDPLNGNTKYVPKFQGKATITADTSSNTAYLQLSSLTSEDTAVYYCVRSGTLFDFWGQGTTLTVSS
VL: DIQMTQSPSSLSASLGGKVTITCKASQDIHKYIAWYQHKPGKGPRLLIQYTSTLQPGIPSRFSGSGSGRDYSFSISNLEPEDIATYYCLQYDNLRTFGGGTKLEIK
notes: also called B3#18_IgG2b
binding result [1]: binds

B2: anti-EREG mouse monoclonal antibody EP20 (B2#30) (antibody, mouse IgG1, V domains shown)
VH: QVQLQQSGAELVRPGVSVKISCKGSGYTFTVYSLHWVKQSHARSLEWIGVISTYYGDAIYNQKFKGKATMTVDKSSSTAYMELARLTSEDSAIYYCAREGNGNPLDYWGQGTTLTVSS
VL: QIVLTQSPAIMSASLGERVTMTCTASSSVSSSYLHWYQQKPGSSPKLWIYSTSNLASGVPARFSGSGSGTSYSLTITNMEAEDSATYYCHQYHRSPLTFGAGTKLELK
notes: Mouse IgG1/κ hybridoma antibody
binding result [1]: binds

B3: anti-EREG mouse monoclonal antibody EP24 (B3#8) (antibody, mouse IgG1, V domains shown)
VH: QVQLKESGPGLVAPSQSLSITCTVSGFSLSSYGVHWVRQPPGKGLEWLGVIWRDGSTTYNSALKSRLSISKDGSKSQVFLKMNSLQTDDTAMYYCARNWNGLMDYWGQGTSVTVSS
VL: DIQMTQTTSSLSASLGDRVTISCRASQDISYYLNWYQQRPDGTVKLLIYYTSRLHSGVPSRFSGSGSGTESSLTISNLEQEDIATYFCQQGHTVPWTFGGGTKLEIK
notes: as for B2
binding result [1]: binds

Other lines, results leading:

binding result [1]: binds
B4: anti-EREG mouse monoclonal antibody EP03 (C7) (antibody, mouse IgG1, V domains shown)
VH: QVQLQQPGAELVKPGASVKLSCKASGYTFTNYWMNWVKQRPGRGLEWIGRIHPSDSETHYNQKFKNKATLTVDKSSSTAYIQLSSLTSEDSAVYYCANLYYYTMDYWGQGTSVTVSS
VL: DIQMTQSPSSLSASLGGKVTITCKASQDINKNIAWHQHKPGKGPRLLIWYTSTLQPGIPSRFSGSGSGRDYSFSISNLEPEDIATYYCLQYDNLPYTFGSGTKLEIK
notes: as for B2

binding result [1]: binds
B5: anti-EREG mouse monoclonal antibody EP08 (#15) (antibody, mouse IgG1, V domains shown)
VH: QVQLQQPGAELVKPGASVKLSCKASGYTFTSYWMHWVKQRPGQGLEWIGEINPYNGGTNYNEKFKSKATLTVDKSSSTAYMQLSSLTSEDSAVYYCTIWKLGTYWGQGTLVTVSA
VL: DIQMTQSPSSLSASLGERVSLTCRASQEISGYLSWLQQKPDGTIKRLIYAASTLDSGVPKRFSGSRSGSDYSLTISSLESEDFADYYCLQYASYPRTFGGGTKLEIK
notes: as for B2

binding result [2]: binds
B6: anti-EREG mouse monoclonal antibody EP29 (B3#41) (antibody, mouse IgG1, V domains shown)
VH: EVQLQQSGTVLARPGASVKMSCKASGYTFTSYWMHWVKQRPGQGLEWIGAIYPGNSDSYNQKFKGKAKLTAVTSTSTAYMELSSLTNEDSAVYYCTSVMAYWGQGTSVTVSS
VL: DIQMTQSPSSLSASLGERVSLTCRASQDIGNSLNWLQQEPDGTIKRLIYATSNLDSGVSKRFSGSRSGSDYSLTISSLESEDFVDYYCLQYASSPWTFGGGTKLEIK
notes: as for B2
